Data taken from paper PMC4817131, “Human DNA polymerase α in binary complex with a DNA:DNA template-primer”.

How the values were obtained:
[1] = biological target: T1, DNA polymerase alpha catalytic core (p180, hPolα) (Homo sapiens, UniProt P09884 338-1259); test: fluorescence anisotropy; 5 mM MgCl2, no dNTP; 50 mM Bis-Tris pH 6.5, 100 mM NaCl, 5 mM MgCl2, 23 °C; 2 nM labeled duplex, 0.1-16000 nM protein, >30 min; details: protein: recombinant; tags: N-terminal His6-SUMO (His6-SMT) removed by SUMO protease; label: 5' 6-FAM on template; template 5' overhang 20 nt, one replicative end
[2] = biological target: T1, DNA polymerase alpha catalytic core …; test: X-ray crystallography (3.3 Å); crystallized with Mg2+ and dCTP; neither bound in active site (binary complex); 50 mM Bis-Tris pH 6.5, 100 mM NaCl, 5 mM MgCl2, 23 °C; 2 nM labeled duplex, 0.1-16000 nM protein, >30 min; details: protein: recombinant; tags: N-terminal His6-SUMO (His6-SMT) removed by SUMO protease; template 5' overhang 5 nt, one replicative end

T1 sequence (P09884 338-1259): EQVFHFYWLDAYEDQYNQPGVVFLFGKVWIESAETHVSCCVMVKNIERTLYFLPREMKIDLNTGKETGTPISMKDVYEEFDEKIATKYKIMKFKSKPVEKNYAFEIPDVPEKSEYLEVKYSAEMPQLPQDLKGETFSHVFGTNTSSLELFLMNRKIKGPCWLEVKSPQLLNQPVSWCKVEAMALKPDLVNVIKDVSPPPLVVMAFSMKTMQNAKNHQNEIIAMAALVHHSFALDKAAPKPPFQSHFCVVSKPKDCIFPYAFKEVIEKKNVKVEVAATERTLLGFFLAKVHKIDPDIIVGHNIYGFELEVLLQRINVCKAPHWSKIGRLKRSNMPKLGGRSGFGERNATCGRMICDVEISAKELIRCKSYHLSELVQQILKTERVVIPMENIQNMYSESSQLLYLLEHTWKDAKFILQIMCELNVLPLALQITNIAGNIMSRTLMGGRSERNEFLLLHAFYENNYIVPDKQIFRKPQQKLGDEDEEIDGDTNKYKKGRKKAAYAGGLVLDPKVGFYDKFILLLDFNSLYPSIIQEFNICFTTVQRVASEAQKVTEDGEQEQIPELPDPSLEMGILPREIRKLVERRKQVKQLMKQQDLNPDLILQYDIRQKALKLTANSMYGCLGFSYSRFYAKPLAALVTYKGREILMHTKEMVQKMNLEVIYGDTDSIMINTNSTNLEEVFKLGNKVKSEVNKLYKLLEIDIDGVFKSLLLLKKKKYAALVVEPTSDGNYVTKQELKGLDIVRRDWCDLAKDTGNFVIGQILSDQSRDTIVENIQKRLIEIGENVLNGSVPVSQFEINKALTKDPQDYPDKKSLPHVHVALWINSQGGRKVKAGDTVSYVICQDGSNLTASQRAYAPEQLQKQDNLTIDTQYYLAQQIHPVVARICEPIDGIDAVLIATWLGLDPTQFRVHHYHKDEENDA

Row | Binder | Kd [1] [nM] | binding result [2]
1 | 10-nt DNA primer/30-nt DNA template (dsDNA) DNA 1: CTTAGGATGGAGAAAGGTAAGATGAAGCCG DNA 2: CGGCTTCATC | ~430 | 
2 | 13-nt DNA primer/18-nt DNA template (dsDNA, primer 3'-terminal dideoxycytosine) DNA 1: TAATGGTAGGGGAAGGAT DNA 2: ATCCTTCCCCTAC |  | binds
3 | 10-nt RNA primer/30-nt DNA template (DNA:RNA) DNA: CTTAGGATGGAGAAAGGTAAGATGAAGCCG RNA: CGGCUUCAUC | ~320 | 
